# Paper PMC7842835, “Production, Purification and Characterization of Recombinant Biotinylated Phytochrome B for Extracellular Optogenetics” (Bio-protocol, 2020)
# T1: PhyB(1-651)-AviTag-His6, biotinylated photosensory domain of A. thaliana phytochrome B (A. thaliana, UniProt P14713 1-651, biotin on the AviTag motif (~80% biotinylation); chromophore phycocyanobilin (PCB))
# T1 construct: photosensory domain of phytochrome B (PhyB), A. thaliana, amino acids 1-651; Expected mass 74 kDa; also called PhyB-AviTag; source: E. coli BL21 Star (DE3), plasmid pMH1105 with HO1 and PcyA, purified (Ni-NTA IMAC, desalting); not shown: AviTag, C-terminal, kept
# T1 sequence (looked up): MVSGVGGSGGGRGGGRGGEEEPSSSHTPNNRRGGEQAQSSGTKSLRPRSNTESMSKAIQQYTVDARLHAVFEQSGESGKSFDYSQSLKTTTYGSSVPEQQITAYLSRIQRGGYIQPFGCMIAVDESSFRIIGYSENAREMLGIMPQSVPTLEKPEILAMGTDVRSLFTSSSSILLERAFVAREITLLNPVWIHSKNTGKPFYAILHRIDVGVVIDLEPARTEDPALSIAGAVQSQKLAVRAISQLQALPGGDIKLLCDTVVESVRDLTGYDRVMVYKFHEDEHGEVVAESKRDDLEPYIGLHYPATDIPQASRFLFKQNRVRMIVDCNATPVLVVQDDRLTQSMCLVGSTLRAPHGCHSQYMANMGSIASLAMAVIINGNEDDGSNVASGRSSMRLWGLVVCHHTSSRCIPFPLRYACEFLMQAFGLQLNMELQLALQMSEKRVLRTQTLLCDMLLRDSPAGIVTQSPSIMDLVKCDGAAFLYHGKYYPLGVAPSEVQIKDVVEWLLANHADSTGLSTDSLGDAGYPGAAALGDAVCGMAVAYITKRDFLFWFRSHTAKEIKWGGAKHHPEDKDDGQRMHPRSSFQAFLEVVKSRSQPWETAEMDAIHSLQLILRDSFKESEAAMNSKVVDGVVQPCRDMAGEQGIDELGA
# B1: GFP-PIF6(1-100)-His6 (domain or fragment, A. thaliana, UniProt Q8L5W7 1-100, looked up)
# chain: MMFLPTDYCCRLSDQEYMELVFENGQILAKGQRSNVSLHNQRTKSIMDLYEAEYNEDFMKSIIHGGGGAITNLGDTQVVPQSHVAAAHETNMLESNKHVD
# notes: Expected mass 40 kDa; source: E. coli BL21 (DE3)pLysS, plasmid pHB111, purified as described for PhyB-AviTag (Ni-NTA IMAC, desalting); not shown: GFP, N-terminal, kept
# Molecular target: T1, PhyB(1-651)-AviTag-His6, biotinylated …
# Test: SEC; equimolar mixture of PhyB-AviTag (2.2 mg/ml) and GFP-PIF6 (1.2 mg/ml) in protein buffer (PBS, 0.5 mM TCEP), illuminated 3 min with 660 nm light (100 µmol/(m^2·s)), Superdex 200 Increase 10/300 GL run in the dark, 1 ml/min, absorbance at 280, 488 and 671 nm; never frozen and frozen-thawed proteins; compared with 740 nm illumination
# Conditions: both partners purified
binder,measurement,value
B1,binding result,binds
